In patent US8951961B2, “Structural and mechanistic basis for novel compound biosynthesis using 4-electron hexose oxidase” (Academia Sinica, priority 2009, dated 2015):

Assays:
E. faecalis ATCC 29302 = assay: Minimum Inhibition Concentrations (MICs) Test; type: cell-based, Enterococcus Faecalis; settings: E. faecalis ATCC 29302, standard strain; no growth in duplicate
E. faecalis ATCC 33186 = assay: Minimum Inhibition Concentrations (MICs) Test; type: cell-based, Enterococcus Faecalis; settings: E. faecalis ATCC 33186, antibiotics sensitive strain
E. faecalis ATCC 51299 = assay: Minimum Inhibition Concentrations (MICs) Test; type: cell-based, Enterococcus Faecalis; settings: E. faecalis ATCC 51299, low level VRE
E. faecalis ATCC 51559 = assay: Minimum Inhibition Concentrations (MICs) Test; type: cell-based, Enterococcus Faecalis; settings: E. faecalis ATCC 51559, multidrug-resistant strain (VRE)
E. faecalis ATCC 700221 = assay: Minimum Inhibition Concentrations (MICs) Test; type: cell-based, Enterococcus Faecalis; settings: E. faecalis ATCC 700221, resistant to vancomycin
S. Aureus ATCC 29213 = assay: Minimum Inhibition Concentrations (MICs) Test; type: cell-based, Staphylococcus Aureus; settings: S. Aureus ATCC 29213, methacillin-sensitive strain
S. Aureus ATCC 700699 = assay: Minimum Inhibition Concentrations (MICs) Test; type: cell-based, Staphylococcus Aureus; settings: S. Aureus ATCC 700699, resistant to methacillin, reduced vancomycin susceptibility
E. faecalis (ATCC 51559) = assay: In vivo animal study, sepsis in mice; design: species or system ICR female mice; settings: 10 mg/kg/dose i.v. twice a day, day 1 to day 3
Protocol: 12 ICR female mice with an average body weight of 27 g to 30 g were used in this experiment. Mice had free access to water and food at all time. Sepsis was induced in mice by intravenous (i.v.) injection of […] cfu/mouse of E. faecalis (ATCC 51559) on day 0. The mice were randomized into the following four treatment groups at the start of the experiment:
Each mouse received 10 mg/kg/dose of the medication by intravenous route, twice a day from day 1 to day 3, for a total of 6 doses. Mice were anesthetized and blood was taken from the orbital sinus on day 1, day 2, and day 3. The blood sample was diluted with PBS, plated on Brain Heart infusion agar (BHI agar; Difico, Detroit, Mich., USA) and cultured for colony formation unit.
Data were expressed as mean±SD and the statistical analysis was performed using SigmaStat®. Differences were considered to be significant if the P value was <0.05.

Dbv29 = assay: Relative enzymatic activities of Dbv29 mutants; type: biochemical, Nonomuraea sp. ATCC39727; settings: relative to WT

Row | Molecule | Relative activity (Dbv29) | also measured
1 | Teicoplanin [Compound 4] |  | MIC (E. faecalis ATCC 29302): 0.125 µg/mL; MIC (E. faecalis ATCC 33186): 0.25 µg/mL; MIC (E. faecalis ATCC 51299): 0.5 µg/mL; MIC (E. faecalis ATCC 51559): >32 µg/mL; MIC (E. faecalis ATCC 700221): >32 µg/mL; MIC (S. Aureus ATCC 29213): 0.5 µg/mL; MIC (S. Aureus ATCC 700699): 8 µg/mL; whole blood bacterial counts over the 3-day period (E. faecalis (ATCC 51559)): suppressed
2 | C26A (protein) MTGGTGADAASAGASSTRPELRGERALPPAGPVKVTPDDPRYLNLKLRGANSRFNGEPDYIHLVGSTQQVADAVEETVRTGKRVAVRSGGHCFEDFVDNPDVKVIIDMSLLTEIAYDPSMNAFLIEPGNTLSEVYEKLYLGWNVTIPGGVCGGVGVGGHICGGGYGPLSRQFGSVVDYLYAVEVVVVNKQGKARVIVATRERDDPHHDLWWAHTGGGGGNFGVVTKYWMRVPEDVGRNPERLLPKPPATLLTSTVTFDWAGMTEAAFSRLLRNHGEWYERNSGPDSPYTGLWSQLMIGNEVPGMGESGFMMPIQVDATRPDARRLLDAHIEAVIDGVPPAEVPEPIEQRWLASTPGRGGRGPASKTKAGYLRKRLTDRQIQAVYENMTHMDGIDYGAVWLIGYGGKVNTVDPAATALPQRDAILKVNYITGWANPGNEAKHLTWVRKLYADVYAETGGVPVPNDVSDGAYINYPDSDLADPGLNTSGVPWHDLYYKGNHPRLRKVKAAYDPRNHFHHALSIRP | 1.11 | 
3 | Y428F/Y453F (protein) MTGGTGADAASAGASSTRPELRGERCLPPAGPVKVTPDDPRYLNLKLRGANSRFNGEPDYIHLVGSTQQVADAVEETVRTGKRVAVRSGGHCFEDFVDNPDVKVIIDMSLLTEIAYDPSMNAFLIEPGNTLSEVYEKLYLGWNVTIPGGVCGGVGVGGHICGGGYGPLSRQFGSVVDYLYAVEVVVVNKQGKARVIVATRERDDPHHDLWWAHTGGGGGNFGVVTKYWMRVPEDVGRNPERLLPKPPATLLTSTVTFDWAGMTEAAFSRLLRNHGEWYERNSGPDSPYTGLWSQLMIGNEVPGMGESGFMMPIQVDATRPDARRLLDAHIEAVIDGVPPAEVPEPIEQRWLASTPGRGGRGPASKTKAGYLRKRLTDRQIQAVYENMTHMDGIDYGAVWLIGYGGKVNTVDPAATALPQRDAILKVNFITGWANPGNEAKHLTWVRKLYADVFAETGGVPVPNDVSDGAYINYPDSDLADPGLNTSGVPWHDLYYKGNHPRLRKVKAAYDPRNHFHHALSIRP | 1.08 | 
4 | Y370F/Y403F (protein) MTGGTGADAASAGASSTRPELRGERCLPPAGPVKVTPDDPRYLNLKLRGANSRFNGEPDYIHLVGSTQQVADAVEETVRTGKRVAVRSGGHCFEDFVDNPDVKVIIDMSLLTEIAYDPSMNAFLIEPGNTLSEVYEKLYLGWNVTIPGGVCGGVGVGGHICGGGYGPLSRQFGSVVDYLYAVEVVVVNKQGKARVIVATRERDDPHHDLWWAHTGGGGGNFGVVTKYWMRVPEDVGRNPERLLPKPPATLLTSTVTFDWAGMTEAAFSRLLRNHGEWYERNSGPDSPYTGLWSQLMIGNEVPGMGESGFMMPIQVDATRPDARRLLDAHIEAVIDGVPPAEVPEPIEQRWLASTPGRGGRGPASKTKAGFLRKRLTDRQIQAVYENMTHMDGIDYGAVWLIGFGGKVNTVDPAATALPQRDAILKVNYITGWANPGNEAKHLTWVRKLYADVYAETGGVPVPNDVSDGAYINYPDSDLADPGLNTSGVPWHDLYYKGNHPRLRKVKAAYDPRNHFHHALSIRP | 0.05 | 
5 | Y473F (protein) MTGGTGADAASAGASSTRPELRGERCLPPAGPVKVTPDDPRYLNLKLRGANSRFNGEPDYIHLVGSTQQVADAVEETVRTGKRVAVRSGGHCFEDFVDNPDVKVIIDMSLLTEIAYDPSMNAFLIEPGNTLSEVYEKLYLGWNVTIPGGVCGGVGVGGHICGGGYGPLSRQFGSVVDYLYAVEVVVVNKQGKARVIVATRERDDPHHDLWWAHTGGGGGNFGVVTKYWMRVPEDVGRNPERLLPKPPATLLTSTVTFDWAGMTEAAFSRLLRNHGEWYERNSGPDSPYTGLWSQLMIGNEVPGMGESGFMMPIQVDATRPDARRLLDAHIEAVIDGVPPAEVPEPIEQRWLASTPGRGGRGPASKTKAGYLRKRLTDRQIQAVYENMTHMDGIDYGAVWLIGYGGKVNTVDPAATALPQRDAILKVNYITGWANPGNEAKHLTWVRKLYADVYAETGGVPVPNDVSDGAYINFPDSDLADPGLNTSGVPWHDLYYKGNHPRLRKVKAAYDPRNHFHHALSIRP | 0.23 | 
6 | R41A/N44A (protein) MTGGTGADAASAGASSTRPELRGERCLPPAGPVKVTPDDPAYLALKLRGANSRFNGEPDYIHLVGSTQQVADAVEETVRTGKRVAVRSGGHCFEDFVDNPDVKVIIDMSLLTEIAYDPSMNAFLIEPGNTLSEVYEKLYLGWNVTIPGGVCGGVGVGGHICGGGYGPLSRQFGSVVDYLYAVEVVVVNKQGKARVIVATRERDDPHHDLWWAHTGGGGGNFGVVTKYWMRVPEDVGRNPERLLPKPPATLLTSTVTFDWAGMTEAAFSRLLRNHGEWYERNSGPDSPYTGLWSQLMIGNEVPGMGESGFMMPIQVDATRPDARRLLDAHIEAVIDGVPPAEVPEPIEQRWLASTPGRGGRGPASKTKAGYLRKRLTDRQIQAVYENMTHMDGIDYGAVWLIGYGGKVNTVDPAATALPQRDAILKVNYITGWANPGNEAKHLTWVRKLYADVYAETGGVPVPNDVSDGAYINYPDSDLADPGLNTSGVPWHDLYYKGNHPRLRKVKAAYDPRNHFHHALSIRP | 0.59 | 
7 | R360E/T366E (protein) MTGGTGADAASAGASSTRPELRGERCLPPAGPVKVTPDDPRYLNLKLRGANSRFNGEPDYIHLVGSTQQVADAVEETVRTGKRVAVRSGGHCFEDFVDNPDVKVIIDMSLLTEIAYDPSMNAFLIEPGNTLSEVYEKLYLGWNVTIPGGVCGGVGVGGHICGGGYGPLSRQFGSVVDYLYAVEVVVVNKQGKARVIVATRERDDPHHDLWWAHTGGGGGNFGVVTKYWMRVPEDVGRNPERLLPKPPATLLTSTVTFDWAGMTEAAFSRLLRNHGEWYERNSGPDSPYTGLWSQLMIGNEVPGMGESGFMMPIQVDATRPDARRLLDAHIEAVIDGVPPAEVPEPIEQRWLASTPGRGGEGPASKEKAGYLRKRLTDRQIQAVYENMTHMDGIDYGAVWLIGYGGKVNTVDPAATALPQRDAILKVNYITGWANPGNEAKHLTWVRKLYADVYAETGGVPVPNDVSDGAYINYPDSDLADPGLNTSGVPWHDLYYKGNHPRLRKVKAAYDPRNHFHHALSIRP | 0.03 | 
8 | R360L/T366A (protein) MTGGTGADAASAGASSTRPELRGERCLPPAGPVKVTPDDPRYLNLKLRGANSRFNGEPDYIHLVGSTQQVADAVEETVRTGKRVAVRSGGHCFEDFVDNPDVKVIIDMSLLTEIAYDPSMNAFLIEPGNTLSEVYEKLYLGWNVTIPGGVCGGVGVGGHICGGGYGPLSRQFGSVVDYLYAVEVVVVNKQGKARVIVATRERDDPHHDLWWAHTGGGGGNFGVVTKYWMRVPEDVGRNPERLLPKPPATLLTSTVTFDWAGMTEAAFSRLLRNHGEWYERNSGPDSPYTGLWSQLMIGNEVPGMGESGFMMPIQVDATRPDARRLLDAHIEAVIDGVPPAEVPEPIEQRWLASTPGRGGLGPASKAKAGYLRKRLTDRQIQAVYENMTHMDGIDYGAVWLIGYGGKVNTVDPAATALPQRDAILKVNYITGWANPGNEAKHLTWVRKLYADVYAETGGVPVPNDVSDGAYINYPDSDLADPGLNTSGVPWHDLYYKGNHPRLRKVKAAYDPRNHFHHALSIRP | 0.03 | 
9 | C92A (protein) MTGGTGADAASAGASSTRPELRGERCLPPAGPVKVTPDDPRYLNLKLRGANSRFNGEPDYIHLVGSTQQVADAVEETVRTGKRVAVRSGGHAFEDFVDNPDVKVIIDMSLLTEIAYDPSMNAFLIEPGNTLSEVYEKLYLGWNVTIPGGVCGGVGVGGHICGGGYGPLSRQFGSVVDYLYAVEVVVVNKQGKARVIVATRERDDPHHDLWWAHTGGGGGNFGVVTKYWMRVPEDVGRNPERLLPKPPATLLTSTVTFDWAGMTEAAFSRLLRNHGEWYERNSGPDSPYTGLWSQLMIGNEVPGMGESGFMMPIQVDATRPDARRLLDAHIEAVIDGVPPAEVPEPIEQRWLASTPGRGGRGPASKTKAGYLRKRLTDRQIQAVYENMTHMDGIDYGAVWLIGYGGKVNTVDPAATALPQRDAILKVNYITGWANPGNEAKHLTWVRKLYADVYAETGGVPVPNDVSDGAYINYPDSDLADPGLNTSGVPWHDLYYKGNHPRLRKVKAAYDPRNHFHHALSIRP | 0.95 | 
10 | R360L/T366E (protein) MTGGTGADAASAGASSTRPELRGERCLPPAGPVKVTPDDPRYLNLKLRGANSRFNGEPDYIHLVGSTQQVADAVEETVRTGKRVAVRSGGHCFEDFVDNPDVKVIIDMSLLTEIAYDPSMNAFLIEPGNTLSEVYEKLYLGWNVTIPGGVCGGVGVGGHICGGGYGPLSRQFGSVVDYLYAVEVVVVNKQGKARVIVATRERDDPHHDLWWAHTGGGGGNFGVVTKYWMRVPEDVGRNPERLLPKPPATLLTSTVTFDWAGMTEAAFSRLLRNHGEWYERNSGPDSPYTGLWSQLMIGNEVPGMGESGFMMPIQVDATRPDARRLLDAHIEAVIDGVPPAEVPEPIEQRWLASTPGRGGLGPASKEKAGYLRKRLTDRQIQAVYENMTHMDGIDYGAVWLIGYGGKVNTVDPAATALPQRDAILKVNYITGWANPGNEAKHLTWVRKLYADVYAETGGVPVPNDVSDGAYINYPDSDLADPGLNTSGVPWHDLYYKGNHPRLRKVKAAYDPRNHFHHALSIRP | 0.01 | 
